Consider 18 sequences from a protein production outcome set (Wang et al. 2014).

The nature of this data set: label from the status in PepcDB records.

For the sequence “MASSAFAFPSYIITKGGLSTDSCKSTSLSSSRSLVTDLPSPCLKPNNNSHSNRRAKVCASLAEKGEYYSNRPPTPLLDTINYPIHMKNLSVKELKQLSDELRSDVIFNVSKTGGHLGSSLGVVELTVALHYIFNTPQDKILWDVGHQSYPHKILTGRRGKMPTMRQTNGLSGFTKRGESEHDCFGTGHSSTTISAGLGMAVGRDLKGKNNNVVAVIGDGAMTAGQAYEAMNNAGYLDSDMIVILNDNKQVSLPTATLDGPSPPVGALSSALSRLQSNPALRELREVAKGMTKQIGGPMHQLAAKVDEYARGMISGTGSSLFEELGLYYIGPVDGHNIDDLVAILKEVKSTRTTGPVLIHVVTEKGRGYPYAERADDKYHGVVKFDPATGRQFKTTNKTQSYTTYFAEALVAEAEVDKDVVAIHAAMGGGTGLNLFQRRFPTRCFDVGIAEQHAVTFAAGLACEGLKPFCAIYSSFMQRAYDQVVHDVDLQKLPVRFAMDRAGLVGADGPTHCGAFDVTFMACLPNMIVMAPSDEADLFNMVATAVAIDDRPSCFRYPRGNGIGVALPPGNKGVPIEIGKGRILKEGERVALLGYGSAVQSCLGAAVMLEERGLNVTVADARFCKPLDRALIRSLAKSHEVLITVEEGSIGGFGSHVVQFLALDGLLDGKLKWRPMVLPDRYIDHGAPADQLAEAGLMPSHIAATALNLIGAPREALF”, the protein production result is recorded as “failed”.

As to “MASSISAAEVKVVPEEYNFLQKHVAFFDRNKDGIVYPSETFQGFRAIGCGYLLSTFAAVFINISLSSKTRPGKGFSFSFPIEVKNVRLGIHSSDSGVYDKDGRFVASKFEEIFAKHAHTHRDALTSKELKELLKANREPNDCKGGILAFGEWKVLYNLCKDKSGLLHKEIVRAVYDGSLFEQLEKQRSSKTP”, the protein production result is listed as “failed”.

For “MASTGASRSLAASPRPPQGRSSRQDKYSVLLPTYNERENLPLIVWLLVKSFSESAINYEIIIIDDGSPDGTREVAEQLAEIYGPDRILLRPREKKLGLGTAYIHGIKHATGNYVIIMDADLSHHPKFIPEFIRKQKEGNFDIVSGTRYKGNGGVYGWDLKRKIISRGANFITQILLRPGASDLTGSFRLYRKEVLQKLIEKCVSKGYVFQMEMIVRARQMNYTIGEVPISFVDRVYGESKLGGNEIVSFLKGLLTLFATT”, the protein production entry is on record as “failed”.

Take “MASVKLPWDLEEEILSRLPPRSLVRFRTVCKHWNGLFSDKRFVKKHLVRARPQFIFLTESKKMYSIEIDLGGTIEVREVPYDFHCQPMKKNFTTIMACDGLLFRDFWKQGVAVWNPWLRQVGWIEYEDKGFRFCGVGYDSCKPDKCYKILGYFNCTRRLSDSLQEGYYQAAIYECASQAFKFIDTPNPFNLWPNKDPLSVNGNLYWLAHNHPETLEYFIETFDFSMEIFKPFCLLPCRKDFGSNELVLAVFKEDRFSLLKQCFETTKIEIWVTKMKIDREEEVVWIKFMTLPTTNLPNLDDTYCCSSYFIFDKTIIMCCGDYKTGATCIYMVRGDMFKKIQINSGIFQFSYCVYLPNLISVPFESHQV”: the protein production entry is given as “failed”. The result for “MASVSGNSTAPDSAAVVTVQDPLSDYVQGLFLDMKGDYWGAIDIFRKVLVRKPADPAVHYSISQSYYRLAVLDSARVYGEAAVRLDPSNRYYLRYLAVVAHDMRDYDRAAELYGQASLLEPDRTEIMYLQGLEYMAAKRLEPALEVFRKAVRIDPYNEAAFAQTLALEIALKHYPEAIDTSKQLLKLGGNERKIGITLAELYTKTGQETLAVQTLQELIAGDRSNITYWIALFDHYIMVGRNDDFHRELAVFLERASLPPESLHDLAKLYILRSGKDSLYVAPTIALLDELTARRPRDSELFMLKGMFGMMHGHQQEGVVLFRKAVQLDSSNATAWEYLISTQLDLGQKRQAFALLAKARRRLPGQRFRWSVLEGSLLLSSHKLRRAVAVLETVAGTKRKPGDPNLLIQANINLAMACDLLGMKKRSRSAYERVLDLDPHNTLAMNNLAYLFTEEGITLRKALRLATNAVMLEPENGVYLDTLGWVHYKLGNFELARQFLEKAAATGLDEPDIYRHLGEVYRKLGNEPKAREMLEKARTVEKTQGNKKSGH” reads “failed”; that for “MASYFDEHDCEPSDPEQETRTNMLLELARSLFNRMDFEDLGLVVDWDHHLPPPAAKTVVENLPRTVIRGSQAELKCPVCLLEFEEEETAIEMPCHHLFHSSCILPWLSKTNSCPLCRYELPTDDDTYEEHRRDKARKQQQQHRLENLHGAMYT”, “failed”; that for “MASYSEDQCSWRGSGLSQAVKNVEQVWLRCAEGSVEWLYPAGALRLTLSPRLPWSAMGPGESSRSPVSVCVKPDPHWGGAQLYLERDGVLELLVGDETSTTPGPAHVRCFSALPGERPALFLQATPHRDISRRIAAFRYELRGDWTAQPAVNTDPVSSEGACRPCNNTEILMAVCTSDFVVRGNIRSVGTDSNLNAAVIKVSATRVYRQKFALFPESGRLTRSGEIRTPLQCGVRPGAGSFLFTGRVHFGEAWLGCAPRYKDFLKAYEQAKQSLMIPCTLVND”, “failed”. Then “MASYSLVESNSFGSENWCLKLQPSYKHGLLTGLSNGEIRLLDWSTGKSVQKIKASETAINDMKVIGSDFSAGHLVSSASIDAVKVFDIRTNDRIAQIQNEANSPFISLDSRHGLLACGTELQGIDAAVYIYDIRKWDTPLRSLIDSHHDDVTCIKFHPSDVNILLSGSTDGYTNIYDLKQDEEEDALHQVINYASIHSCGWLSPKRIFTLSHMETFAIHELNDKSDELKEPQPLDFGDVREIWNCDYVVDIYPGLIATGKTQENCGELCLLPFKDEKVDTENGIVIPHAHGDEVVRDIFIPAQHSNMLYSCGEDGCVKIWENKQGPLDIPENFWDYSKKMNVLGDDDREGSINLDEPLIIQKESVSTRPRKEKHKKAKKHSMKSRFKPY”, with “failed”. Then “MATETLTKSDAITQSLRAAVDRNFNDQVAFLQRMVQFRSVRGEEAPQQEWLAQQFADRGYKVDTFSLADVDIASHPKAAPMDTIDPAGSMQVVATADSDGKGRSLILQGHIDVVPEGPVDLWSDPPYEAKVRDGWMIGRGAQDMKGGVSAMIFALDAIRTAGYAPDARVHVQTVTEEESTGNGALSTLMRGYRADACLIPEPTGHTLTRAQVGAVWFRLRVRGTPVHVAYSETGTSAILSAMHLIRAFEEYTKELNAQAVRDPWFGQVKNPIKFNVGIIKGGDWASSTAAWCELDCRLGLLTGDTPQEAMRGIEKCLADAQATDSFLSENPAELVWSGFQADPAVCEPGGVAEDVLTAAHKAAFNAPLDARLSTAVNDTRYYSVDYGIPALCYGPYGQGPHAFDERIDLESLRKTTLSIALFVAEWCGLRKL”, with “not failed”; and “MATETQIRIGVMGCADIARKVSRAIHLAPNATISGVASRSLEKAKAFATANNYPESTKIHGSYESLLEDPEIDALYVPLPTSLHVEWAIKAAEKGKHILLEKPVAMNVTEFDKIVDACEANGVQIMDGTMWVHNPRTALLKEFLSDSERFGQLKTVQSCFSFAGDEDFLKNDIRVKPGLDGLGALGDAGWYAIRATLLANNFELPKTVTAFPGAVLNEAGVILSCGASLSWEDGRTATIYCSFLANLTMEITAIGTKGTLRVHDFIIPYKETEASFTTSTKAWFNDLVTAWVSPPSEHTVKTELPQEACMVREFARLVGEIKNNGAKPDGYWPSISRKTQLVVDAVKESVDKNYQQISLSGR”, with “not failed”.

On to “MATIGLDRLYYSKITEDANGEETYAQPSVLAKAITAELSVELVEAILYADDGAAEVVKDFNSGTLTLGVDDIGPMVAADLTGASTDDNGVLISASENVGTPVAVGFRAQRANGTYRYFWLYRVKFGLPATNLQTKADSITFSTPTIEGTVMRRNKLDGLGKHPWKAEVTEGDPGVSSTTITGWFTEVYEPVYTPEP”, for which the protein production result is listed as “failed”. Then “MATIGSLLLWAITIYSYMIIGYILMSWFPNARESSFGQFLGSIVEPYLAPFRKIIPPLGMIDISPIVAIFALTFARYGVHAIFF”, with “failed”.

Take “MATIHVDGKTLEVDGADNLLQACLSLGLDIPYFCWHPALGSVGACRQCAVKQYTDENDKRGRLVMSCMTPATDNTWISIEDEEAKQFRASVVEWLMTNHPHDCPVCEEGGHCHLQDMTVMTGHNERRYRFTKRTHQNQELGPFIAHEMNRCIACYRCVRYYKDYAGGTDLGVYGAHDNVYFGRVEDGVLESEFSGNLTEVCPTGVFTDKTHSERYNRKWDMQFAPSICHGCSSGCNISPGERYGEIRRIENRYNGSVNHYFLCDRGRFGYGYVNREDRPRQPLLVLSKQKLSLDGALDQAAALLKERKVVGIGSPRASLESNFALRELVGEGNFYSGINEGELDRLRLILQVMQEGPLPVPSIRDIEDHDAVFVLGEDLTQTAARIALALRQSVKGKAVEMAADMKVQPWLDAAVKNIAQHAQNPLFIASVSATRLDDVAEETVHAAPDDLARLGFAVAHAIDPSAPSVADLDPQAQAFAQRITDALLAAKRPLVVSGNSLGNKALIEAAANIAKALKQREKNGSISLVVGEANSLGLALFGGDSVEAALERLTSGQADAVVVLENDLYRRTDAARVDAALAAAKVVIVADHQQTATTAKAHLVLPAASFAEGDGTLVSQEGRAQRFFQVFDPTYYDARNMVREGWRWLHAIHSTLQGKRVDWTQLDHVTEAVAEAKPILAGIRDAAPAASFRIKGLKLAREPHRYSGRTAMRANISVHEPRTPQDIDSAFAFSMEGYSGSQEDRQQIPFAWSPGWNSPQAWNKFQDEVGGHLRAGDPGVRLIEPKGEGLDWFQAVPVPFSAKADSWKVVPLYHLFGSEENSSRAAPIQQRIPETYVALSKEDADRLGVNDGATLGFQLKGQALRLPLRIDEQLGAGLIGLPVGFAGIPAAIAGCSVEGLQ”: the protein production entry is reported as “failed”. Then “MATIIFAGRSNVGKSTLIYRLTGKKVRRGKRPGVTRKIIEIEWKNHKIIDMPGFGFMMGLPKEVQERIKDEIVHFIEDNAKNIDVAVLVVDGKAAPEIIKRWEKRGEIPIDVEFYQFLRELDIPTIVAVNKLDKIKNVQEVINFLAEKFEVPLSEIDKVFIPISAKFGDNIERLKNRIFEVIRERQGRRV”, with “not failed”; and “MATITVVKARQIFDSRGNPTVEVDIHTSNGIKVTAAVPSGASTGIYEALELRDGGSDYLGKGVSKAVGNVNNIIGPALIGKDPTQQTAIDNFMVHELDGTQNEWGWCKQKLGANAILAVSLAVCKAGAVVSGIPLYKHIANLAGNPKIVLPVPAFNVINGGSHAGNKLAMQEFMILPVGAASFKEAMKMGVEVYHHLKSVIKKKYGQDATNVGDEGGFAPNIQENKEGLELLKTAIEKAGYTGKVVIGMDVAASEFYSEDKTYDLNFKEENNNGSQKISGDALKDLYKSFVAEYPIVSIEDPFDQDDWEHYAKMTTECGTEVQIVGDDLLVTNPKRVAKAIAEKSCNALLLKVNQIGSVTESIEAVKMSKKAGWGVMTSHRSGETEDTFIADLAVGLSTGQIKTGAPCRSERLAKYNQLLRIEEELGSEAIYAGVNFRKPVEPY”, with “failed”. Then “MATKARVMYDFAAEPGNNELTVTEGEIITVTNPNVGGGWLEGKNNKGEQGLVPTDYVEILPNDGKDPFSC”, with “not failed”; and “MATKIDKEACRAAYNLVRDDGSAVIWVTFRYDGATIVPGDQGADYQHFIQQCTDDVRLFAFVRFTTGDAMSKRSKFALITWIGEDVSGLQRAKTGTDKTLVKEVVQNFAKEFVISDRKELEEDFIRSELKKAGGANYDAQSE”, with “not failed”. Regarding “MATLEITDIALVQPSHQPLSNDQTLSLSHLDNDNNLHVSFRYLRVYSSSSSTVAGESPSAVVSASLATALVHYYPLAGSLRRSASDNRFELLCSAGQSVPLVNATVNCTLESVGYLDGPDPGFVERLVPDPTREEGMVNPCILQVTMFQCGGWVLGASIHHAICDGLGASLFFNAMAELARGATKISIEPVWDRERLLGPREKPWVGAPVRDFLSLDKDFDPYGQAIGDVKRDCFFVTDDSLDQLKAQLLEKSGLNFTTFEALGAYIWRAKVRAAKTEEKENVKFVYSINIRRLMNPPLPKGYWGNGCVPMYAQIKAGELIEQPIWKTAELIKQSKSNTSDEYVRSFIDFQELHHKDGINAGTGVTGFTDWRYLGHSTIDFGWGGPVTVLPLSNKLLGSMEPCFFLPYSTDAAAGSKKDSGFKVLVNLRESAMPEFKEAMDKFHKGEFALS”, the protein production entry is “failed”.
